Test results as given in patent US20220306759A1.

What was measured:
[1] = target: human CD71 (transferrin receptor protein 1, TfR1) on human cell lines (human) (UniProt P02786); assay: FACS on H292 cells; isotype ADC control, curve fit with Bmax of only 10.64 MFI
[2] = target: human CD71 (transferrin receptor protein 1, TfR1) on human cell lines (human) (UniProt P02786); assay: FACS on H292 cells; isotype ADC control

Sequence of human CD71 (transferrin receptor protein 1, TfR1) on human cell lines (human) (P02786 whole entry): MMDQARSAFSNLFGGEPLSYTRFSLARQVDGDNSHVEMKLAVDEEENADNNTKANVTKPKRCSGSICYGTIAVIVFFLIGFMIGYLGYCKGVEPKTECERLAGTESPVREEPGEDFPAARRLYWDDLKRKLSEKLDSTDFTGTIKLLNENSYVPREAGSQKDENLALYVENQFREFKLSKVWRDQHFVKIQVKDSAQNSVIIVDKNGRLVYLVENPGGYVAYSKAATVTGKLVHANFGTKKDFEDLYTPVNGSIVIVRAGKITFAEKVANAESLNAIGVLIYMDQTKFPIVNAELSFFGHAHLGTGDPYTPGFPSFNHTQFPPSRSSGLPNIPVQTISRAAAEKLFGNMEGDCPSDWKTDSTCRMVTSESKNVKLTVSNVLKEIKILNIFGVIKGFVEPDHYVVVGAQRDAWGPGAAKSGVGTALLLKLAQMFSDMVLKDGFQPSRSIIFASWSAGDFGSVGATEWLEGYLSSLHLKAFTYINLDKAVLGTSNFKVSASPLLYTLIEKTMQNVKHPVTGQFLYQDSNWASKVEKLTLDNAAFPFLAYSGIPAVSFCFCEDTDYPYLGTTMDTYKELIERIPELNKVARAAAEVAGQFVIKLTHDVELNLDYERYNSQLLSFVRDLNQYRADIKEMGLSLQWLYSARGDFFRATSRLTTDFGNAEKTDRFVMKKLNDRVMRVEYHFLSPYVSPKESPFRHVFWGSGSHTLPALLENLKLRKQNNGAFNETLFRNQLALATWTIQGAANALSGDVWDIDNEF

Kd [1]: 57 nM
Bmax (MFI) [2]: 10.6 MFI
Substance: isotype ADC control (palivizumab-vc-MMAE) (antibody)
